Experimental findings from publication PMC3679363 (Molecular cell, 2013) are described below.

For the test, the target named is recombinant His-Tip60α ( (human or mouse cDNA cloned), UniProt Q92993 1-513). The test is described as follows: pull-down.
Chain of recombinant His-Tip60α (Q92993 whole entry): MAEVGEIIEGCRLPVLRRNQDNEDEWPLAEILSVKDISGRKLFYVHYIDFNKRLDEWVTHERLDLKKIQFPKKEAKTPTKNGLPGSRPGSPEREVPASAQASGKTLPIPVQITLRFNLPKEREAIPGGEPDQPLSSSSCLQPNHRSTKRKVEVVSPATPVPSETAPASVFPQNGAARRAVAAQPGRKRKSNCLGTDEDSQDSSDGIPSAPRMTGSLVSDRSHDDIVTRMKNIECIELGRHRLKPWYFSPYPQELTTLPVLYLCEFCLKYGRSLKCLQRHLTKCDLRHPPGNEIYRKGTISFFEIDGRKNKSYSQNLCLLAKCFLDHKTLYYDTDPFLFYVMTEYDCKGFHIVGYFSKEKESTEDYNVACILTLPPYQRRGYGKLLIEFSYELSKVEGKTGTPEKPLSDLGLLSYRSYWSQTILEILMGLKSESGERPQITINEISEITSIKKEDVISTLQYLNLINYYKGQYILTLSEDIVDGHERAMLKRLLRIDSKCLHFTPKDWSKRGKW

B1: GST-PRAK (enzyme, UniProt Q8IW41 1-473, looked up)
chain: MSEESDMDKAIKETSILEEYSINWTQKLGAGISGPVRVCVKKSTQERFALKILLDRPKARNEVRLHMMCATHPNIVQIIEVFANSVQFPHESSPRARLLIVMEMMEGGELFHRISQHRHFTEKQASQVTKQIALALRHCHLLNIAHRDLKPENLLFKDNSLDAPVKLCDFGFAKIDQGDLMTPQFTPYYVAPQVLEAQRRHQKEKSGIIPTSPTPYTYNKSCDLWSLGVIIYVMLCGYPPFYSKHHSRTIPKDMRRKIMTGSFEFPEEEWSQISEMAKDVVRKLLKVKPEERLTIEGVLDHPWLNSTEALDNVLPSAQLMMDKAVVAGIQQAHAEQLANMRIQDLKVSLKPLHSVNNPILRKRKLLGTKPKDSVYIHDHENGAEDSNVALEKLRDVIAQCILPQAGKGENEDEKLNEVMQEAWKYNRECKLLRDTLQSFSWNGRGFTDKVDRLKLAEIVKQVIEEQTTSHESQ
Turning to B1, the binding result is on record as “binds”.
